# Measurements reported in patent US6828136B2, “Esterase enzymes, DNA encoding esterase enzymes and vectors and host cells incorporating same” (Genencor International, Inc., priority 1996, dated 2004).
# Read-outs that look alike come from different tables or passages of the source.
# Assays:
# 38 kD esterase = 38 kD esterase (Aspergillus awamori, UniProt Q9P979); experiment: API-20 enzyme test strip, substrate specificity for 38 kD esterase (Table 2); assay type: biochemical, Aspergillus niger; details: API-20 strip
# Procedure: Purified 38 kD esterase was analyzed for a variety of biochemical activities with an API-20 enzyme test strip (BioMerieux Vitek) according to the manufacturers instructions. […] “+++” indicates very strong response, “++” indicates strong response and “+” indicates activity shown towards substrate. “−” means no activity detected.
# [1] = Activity of purified 38 kD esterase toward natural and synthetic substrates (in words); assay type: biochemical; details: purified enzyme
# Procedure: (§1) The 38 kD esterase isolated according to Example 1 was analyzed for biochemical properties. […] When the 38 kD esterase was incubated in buffer for 30 minutes without substrate at pH 5.1, the temperature optima was 55° C.
# [2] = Isoelectric point by isoelectric focusing (IEF) gel; assay type: physicochemical
# Procedure: Upon native PAGE of a desalted active fraction from HPSEC a single protein band was observed, The isolelectric point of the FAE was determined using Phast gel Dry IEF equilibrated with a solution ampholyte, (20% final concentration, containing a mix of pI 2-4, 80%, pI 3-10 20%) Glycerol (10%) for 1 hour. Separation was performed as per manufacturers recommendation (Pharmacia Biotechnology, Dry IEF instruction bulletin) and stained with coomassie R-250. The sample migrated as a single protein band with an isolelectric point of about 2.8.
# [3] = pH and temperature optimum of 38 kD esterase activity on methyl ferulate; assay type: biochemical; details: for maximal activity: methyl ferulate
# Procedure: The enzyme sample was chromatographed by hydrophobic interaction chromatography (Poros® HPEM phenyl ether, Perseptive BioSystems, perfusion chromatography, […]). The column was connected to a BioCad® Perfusion Chromatography Workstation (Perseptive BioSystems) and equilibrated with 5 column volumes Tris-HCl (50 mM, pH 7.4) plus 1.2 M ammonium sulfate. The sample (205 ml) was applied to the column and separated at a flow rate of 30 ml/min with a linear gradient from 1.2 M to 200 mM ammonium sulfate over 20 column volumes. […] Four fractions eluting at 750 mM ammonium sulfate contained 83% of the starting FAE activity. Active fractions were pooled (60 ml), dialysed by ultrafiltration into start buffer for next chromatographic step (10 kDa membrane, 20L of 25 mM sodium acetate buffer pH 5.0). The sample was concentrated to 10 ml in preparation for ion exchange chromatography.
# as §1
# [4] = from A. niger CBS120.49 grown on oat spelt xylan; cited from earlier work
# [5] = from A. niger CBS120.49; cited from earlier work
# [6] = substrate: COc1cc(/C=C/C(=O)OC[C@@H]2O[C@@H](O[C@H]3[C@H](O)COC(O)[C@@H]3O)[C@H](O)[C@H]2O)ccc1O; experiment: purified protein, by the assay type; details: other: substrate of purified 38 kD esterase
# [7] = substrate: COC(=O)/C=C/c1ccc(O)c(OC)c1; experiment: purified protein, by the assay type; details: other: substrate of purified 38 kD esterase
# [8] = substrate: COc1cc(/C=C/C(=O)OC[C@@H]2O[C@@H](O[C@@H]3[C@@H](O)[C@H](O[C@@H]4COC(O)[C@H](O)[C@H]4O)OC[C@H]3O)[C@H](O)[C@H]2O)ccc1O; experiment: purified protein, by the assay type; details: other: substrate of purified 38 kD esterase
# [9] = substrate: COc1cc(/C=C/C(=O)OC[C@@H]2O[C@@H](O[C@@H]3[C@@H](O)[C@H](O[C@@H]4COC(O)[C@H](O)[C@H]4O)OC[C@H]3O[C@@H]3OC[C@@H](O)[C@H](O)[C@H]3O)[C@H](O)[C@H]2O)ccc1O; experiment: purified protein, by the assay type; details: other: substrate of purified 38 kD esterase
molecule,measurement,setting,value
OC[C@H]1O[C@@H](Oc2ccc3cc(Br)ccc3c2)[C@H](O)[C@@H](O)[C@@H]1O [6-Br-2-naphthyl-βD-glucopyranoside],Activity,38 kD esterase; pH 5.4,(+++)
OC[C@H]1O[C@H](Oc2ccc3ccccc3c2)[C@H](O)[C@@H](O)[C@@H]1O [2-naphthyl-αD-glucopyranoside],Activity,38 kD esterase; pH 5.4,(+)
OC[C@H]1O[C@H](Oc2ccc3cc(Br)ccc3c2)[C@H](O)[C@@H](O)[C@H]1O [6-Br-2-naphthyl-αD-galactopyranoside],Activity,38 kD esterase; pH 5.4,(+++)
O=P(O)(O)Oc1ccc2ccccc2c1 [2-naphthyl phosphate],Activity,38 kD esterase; pH 5.4,(+)
CCCCCCCCCCCCCC(=O)Oc1ccc2ccccc2c1 [2-naphthyl myristate],Activity,38 kD esterase; pH 7.5,(+)
COc1ccccc1NC(=O)c1cc2cc(Br)ccc2cc1OP(=O)(O)O [Naphthol-AS-BI-phosphate],Activity,38 kD esterase; pH 5.4,(++)
CCCCCCCC(=O)Oc1ccc2ccccc2c1 [2-naphthyl caprylate],Activity,38 kD esterase; pH 7.5,(++)
CCCC(=O)Oc1ccc2ccccc2c1 [2-naphthyl butyrate],Activity,38 kD esterase; pH 6.5,(+++)
OC[C@H]1O[C@@H](Oc2ccc3ccccc3c2)[C@H](O)[C@@H](O)[C@H]1O [2-naphthyl-βD-galactopyranoside],Activity,38 kD esterase; pH 5.4,(++)
"38 kD esterase: esterase derived from Aspergillus niger, about 38 kD on SDS-PAGE, amino acid sequence SEQ. ID NO:28 (protein) MKQFSAKHVLAVVVTAGHALAASTQGISEDLYSRLVEMATISQAAYADLCNIPSTIIKGEKIYNSQTDINGWILRDDSSKEIITVFRGTGSDTNLQLDTNYTLTPFDTLPQCNGCEVHGGYYIGWVSVQDQVESLVKQQVSQYPDYALTVTGHSLGASLAALTAAQLSATYDNIRLYTFGEPRSGNQAFASYMNDAFQASSPDTTQYFRVTHANDGIPNLPPVEQGYAHGGVEYWSVDPYSAQNTFVCTGDEVQCCEAQGGQGVNNAHTTYFGMTSGACTW","activity toward natural feruloyl and p-coumaroyl esters, cell walls of wheat bran and sugar beet pulp, wheat flour, pentosan fraction, ethyl and methyl esters of ferulic and p-coumaric acid",[1],active
same,pI (isoelectric point),[2],about 2.8
same,temperature optimum,[3]; 250 μM methyl ferulate present,65 °C
same,maximal activity,[3]; pH 3,83%
same,maximal activity,[3]; pH 8,25%
"FAE-III: ferulic acid esterase isolated from Aspergillus niger CBS 120.49 (Faulds et al.) (protein, UniProt O42807 22-281, looked up) Feruloyl esterase A: ASTQGISEDLYNRLVEMATISQAAYADLCNIPSTIIKGEKIYNAQTDINGWILRDDTSKEIITVFRGTGSDTNLQLDTNYTLTPFDTLPQCNDCEVHGGYYIGWISVQDQVESLVKQQASQYPDYALTVTGHSLGASMAALTAAQLSATYDNVRLYTFGEPRSGNQAFASYMNDAFQVSSPETTQYFRVTHSNDGIPNLPPADEGYAHGGVEYWSVDPYSAQNTFVCTGDEVQCCEAQGGQGVNDAHTTYFGMTSGACTW",pI,[4],3.3
same,pH optimum,[5],5
same,temperature optimum,[5],55-60 °C
38 kD esterase (Aspergillus awamori) (protein) ASTQGISEDLYSRLVEMATISQAAYADLCNIPSTIIKGEKIYNSQTDINGWILRDDSSKEIITVFRGTGSDTNLQLDTNYTLTPFDTLPQCNGCEVHGGYYIGWVSVQDQVESLVKQQVSQYPDYALTVTGHSLGASLAALTAAQLSATYDNIRLYTFGEPRSGNQAFASYMNDAFQASSPDTTQYFRVTHANDGIPNLPPVEQGYAHGGVEYWSVDPYSAQNTFVCTGDEVQCCEAQGGQGVNNAHTTYFGMTSGACTW,Km,[6],78 µM
same,Vmax,[6],276 µmol/min/mg
same,Km,[7],2080 µM
same,Vmax,[7],87 µmol/min/mg
same,Km,[8],19 µM
same,Vmax,[8],498 µmol/min/mg
same,Km,[9],52 µM
same,Vmax,[9],307 µmol/min/mg
